# According to IntAct's records for PubMed 29039417:
# B1: BBSome complex member BBS4 (Homo sapiens), Q96RK4 (parent)
# chain: MAEERVATRTQFPVSTESQKPRQKKAPEFPILEKQNWLIHLHYIRKDYEACKAVIKEQLQETQGLCEYAIYVQALIFRLEGNIQESLELFQTCAVLSPQSADNLKQVARSLFLLGKHKAAIEVYNEAAKLNQKDWEISHNLGVCYIYLKQFNKAQDQLHNALNLNRHDLTYIMLGKIHLLEGDLDKAIEVYKKAVEFSPENTELLTTLGLLYLQLGIYQKAFEHLGNALTYDPTNYKAILAAGSMMQTHGDFDVALTKYRVVACAVPESPPLWNNIGMCFFGKKKYVAAISCLKRANYLAPFDWKILYNLGLVHLTMQQYASAFHFLSAAINFQPKMGELYMLLAVALTNLEDIENAKRAYAEAVHLDKCNPLVNLNYAVLLYNQGEKKNALAQYQEMEKKVSLLKDNSSLEFDSEMVEMAQKLGAALQVGEALVWTKPVKDPKSKHQTTSTSKPASFQQPLGSNQALGQAMSSAAAYRTLPSGAGGTSQFTKPPSLPLEPEPAVESSPTETSEQIREK
# partner: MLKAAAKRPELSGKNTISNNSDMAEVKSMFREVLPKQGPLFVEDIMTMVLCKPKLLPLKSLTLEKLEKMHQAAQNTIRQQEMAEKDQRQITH
# Variants of: B1
# Conditions: with bbip1_human BBIP1, A8MTZ0
row,Variant,effect of a mutation on the interaction
1,MAEERVATRTQFPVSTESQKPRQKKAPEFPILEKQNWLIHLHYIRKDYEACKAVIKEQLQETQGLCEYAIYVQALIFRLEGNIQESLELFQTCAVLSPQSADNLKQVARSLFLLGKHKAAIEVYNEAAKLNQKDWEISHNLGVCYIYLKQFNKAQDQLHNALNLNRHDLTYIMLGKIHLLEGDLDKAIEVYKKAVEFSPENTELLTTLGLLYLQLGIYQKAFEHLGNALTYDPTNYKAILAAGSMMQTHGDFDVALTKYRVVACAVPESPPLWNNIGMCFFGKKKYVAAISCLKRANYLAPFDWKILYNLGLVHLTMQQYASAFHFLSAAINFQPKMGELYMLLAVALTNLEDIENAKRAYAEAVHLDKCNPLVELNYAVLLYNQGEKKNALAQYQEMEKKVSLLKDNSSLEFDSEMVEMAQKLGAALQVGEALVWTKPVKDPKSKHQTTSTSKPASFQQPLGSNQALGQAMSSAAAYRTLPSGAGGTSQFTKPPSLPLEPEPAVESSPTETSEQIREK [N375E],with no effect
2,MAEERVATRTQFPVSTESQKPRQKKAPEFPILEKQNWLIHLHYIRKDYEACKAVIKEQLQETQGLCEYAIYVQALIFRLEGNIQESLELFQTCAVLSPQSADNLKQVARSLFLLGKHKAAIEVYNEAAKLNQKDWEISHNLGVCYIYLKQFNKAQDQLHNALNLNRHDLTYIMLGKIHLLEGDLDKAIEVYKKAVEFSPENTELLTTLGLLYLQLGIYQKAFEHLGNALTYDPTNYKAILAAGSMMQTHGDFDVALTKYRVVACAVPESPPLWNNIGMCFFGKKKYVAAISCLKRANYLAPFDWKILYNLGLVHLTMQQYASAFHFLSAAINFQPKMGELYMLLAVALTNLEDIENAKRAYAEAVHLDKCNPLVKLNYAVLLYNQGEKKNALAQYQEMEKKVSLLKDNSSLEFDSEMVEMAQKLGAALQVGEALVWTKPVKDPKSKHQTTSTSKPASFQQPLGSNQALGQAMSSAAAYRTLPSGAGGTSQFTKPPSLPLEPEPAVESSPTETSEQIREK [N375K],with no effect
3,MAEERVATRTQFPVSTESQKPRQKKAPEFPILEKQNWLIHLHYIRKDYEACKAVIKEQLQETQGLCEYAIYVQALIFRLEGNIQESLELFQTCAVLSPQSADNLKQVARSLFLLGKHKAAIEVYNEAAKLNQKDWEISHNLGVCYIYLKQFNKAQDQLHNALNLNRHDLTYIMLGKIHLLEGDLDKAIEVYKKAVEFSPENTELLTTLGLLYLQLGIYQKAFEHLGNALTYDPTNYKAILAAGSMMQTHGDFDVALTKYRVVACAVPESPPLWNNIGMCFFGKKKYVAAISCLKRANYLAPFDWKILYNLGLVHLTMQQYASAFHFLSAAINFQPKMGELYMLLAVALTNLEDIENAKRAYAEAVHLDKCNPLVNKNYAVLLYNQGEKKNALAQYQEMEKKVSLLKDNSSLEFDSEMVEMAQKLGAALQVGEALVWTKPVKDPKSKHQTTSTSKPASFQQPLGSNQALGQAMSSAAAYRTLPSGAGGTSQFTKPPSLPLEPEPAVESSPTETSEQIREK [L376K],with no effect
4,MAEERVATRTQFPVSTESQKPRQKKAPEFPILEKQNWLIHLHYIRKDYEACKAVIKEQLQETQGLCEYAIYVQALIFRLEGNIQESLELFQTCAVLSPQSADNLKQVARSLFLLGKHKAAIEVYNEAAKLNQKDWEISHNLGVCYIYLKQFNKAQDQLHNALNLNRHDLTYIMLGKIHLLEGDLDKAIEVYKKAVEFSPENTELLTTLGLLYLQLGIYQKAFEHLGNALTYDPTNYKAILAAGSMMQTHGDFDVALTKYRVVACAVPESPPLWNNIGMCFFGKKKYVAAISCLKRANYLAPFDWKILYNLGLVHLTMQQYASAFHFLSAAINFQPKMGELYMLLAVALTNLEDIENAKRAYAEAVHLDKCNPLVNANYAVLLYNQGEKKNALAQYQEMEKKVSLLKDNSSLEFDSEMVEMAQKLGAALQVGEALVWTKPVKDPKSKHQTTSTSKPASFQQPLGSNQALGQAMSSAAAYRTLPSGAGGTSQFTKPPSLPLEPEPAVESSPTETSEQIREK [L376A],with no effect
5,MAEERVATRTQFPVSTESQKPRQKKAPEFPILEKQNWLIHLHYIRKDYEACKAVIKEQLQETQGLCEYAIYVQALIFRLEGNIQESLELFQTCAVLSPQSADNLKQVARSLFLLGKHKAAIEVYNEAAKLNQKDWEISHNLGVCYIYLKQFNKAQDQLHNALNLNRHDLTYIMLGKIHLLEGDLDKAIEVYKKAVEFSPENTELLTTLGLLYLQLGIYQKAFEHLGNALTYDPTNYKAILAAGSMMQTHGDFDVALTKYRVVACAVPESPPLWNNIGMCFFGKKKYVAAISCLKRANYLAPFDWKILYNLGLVHLTMQQYASAFHFLSAAINFQPKMGELYMLLAVALTNLEDIENAKRAYAEAVHLDKCNPLVNENYAVLLYNQGEKKNALAQYQEMEKKVSLLKDNSSLEFDSEMVEMAQKLGAALQVGEALVWTKPVKDPKSKHQTTSTSKPASFQQPLGSNQALGQAMSSAAAYRTLPSGAGGTSQFTKPPSLPLEPEPAVESSPTETSEQIREK [L376E],with no effect
6,MAEERVATRTQFPVSTESQKPRQKKAPEFPILEKQNWLIHLHYIRKDYEACKAVIKEQLQETQGLCEYAIYVQALIFRLEGNIQESLELFQTCAVLSPQSADNLKQVARSLFLLGKHKAAIEVYNEAAKLNQKDWEISHNLGVCYIYLKQFNKAQDQLHNALNLNRHDLTYIMLGKIHLLEGDLDKAIEVYKKAVEFSPENTELLTTLGLLYLQLGIYQKAFEHLGNALTYDPTNYKAILAAGSMMQTHGDFDVALTKYRVVACAVPESPPLWNNIGMCFFGKKKYVAAISCLKRANYLAPFDWKILYNLGLVHLTMQQYASAFHFLSAAINFQPKMGELYMLLAVALTNLEDIENAKRAYAEAVHLDKCNPLVNPNYAVLLYNQGEKKNALAQYQEMEKKVSLLKDNSSLEFDSEMVEMAQKLGAALQVGEALVWTKPVKDPKSKHQTTSTSKPASFQQPLGSNQALGQAMSSAAAYRTLPSGAGGTSQFTKPPSLPLEPEPAVESSPTETSEQIREK [L376P],disrupting interaction strength

# More lines, now with the values ahead:
row,effect of a mutation on the interaction,Variant
1,disrupting interaction strength,MAEERVATRTQFPVSTESQKPRQKKAPEFPILEKQNWLIHLHYIRKDYEACKAVIKEQLQETQGLCEYAIYVQALIFRLEGNIQESLELFQTCAVLSPQSADNLKQVARSLFLLGKHKAAIEVYNEAAKLNQKDWEISHNLGVCYIYLKQFNKAQDQLHNALNLNRHDLTYIMLGKIHLLEGDLDKAIEVYKKAVEFSPENTELLTTLGLLYLQLGIYQKAFEHLGNALTYDPTNYKAILAAGSMMQTHGDFDVALTKYRVVACAVPESPPLWNNIGMCFFGKKKYVAAISCLKRANYLAPFDWKILYNLGLVHLTMQQYASAFHFLSAAINFQPKMGELYMLLAVALTNLEDIENAKRAYAEAVHLDKCNPLVNRNYAVLLYNQGEKKNALAQYQEMEKKVSLLKDNSSLEFDSEMVEMAQKLGAALQVGEALVWTKPVKDPKSKHQTTSTSKPASFQQPLGSNQALGQAMSSAAAYRTLPSGAGGTSQFTKPPSLPLEPEPAVESSPTETSEQIREK [L376R]
2,disrupting interaction strength,MAEERVATRTQFPVSTESQKPRQKKAPEFPILEKQNWLIHLHYIRKDYEACKAVIKEQLQETQGLCEYAIYVQALIFRLEGNIQESLELFQTCAVLSPQSADNLKQVARSLFLLGKHKAAIEVYNEAAKLNQKDWEISHNLGVCYIYLKQFNKAQDQLHNALNLNRHDLTYIMLGKIHLLEGDLDKAIEVYKKAVEFSPENTELLTTLGLLYLQLGIYQKAFEHLGNALTYDPTNYKAILAAGSMMQTHGDFDVALTKYRVVACAVPESPPLWNNIGMCFFGKKKYVAAISCLKRANYLAPFDWKILYNLGLVHLTMQQYASAFHFLSAAINFQPKMGELYMLLAVALTNLEDIENAKRAYAEAVHLDKCNPLVNLDYAVLLYNQGEKKNALAQYQEMEKKVSLLKDNSSLEFDSEMVEMAQKLGAALQVGEALVWTKPVKDPKSKHQTTSTSKPASFQQPLGSNQALGQAMSSAAAYRTLPSGAGGTSQFTKPPSLPLEPEPAVESSPTETSEQIREK [N377D]
3,disrupting interaction strength,MAEERVATRTQFPVSTESQKPRQKKAPEFPILEKQNWLIHLHYIRKDYEACKAVIKEQLQETQGLCEYAIYVQALIFRLEGNIQESLELFQTCAVLSPQSADNLKQVARSLFLLGKHKAAIEVYNEAAKLNQKDWEISHNLGVCYIYLKQFNKAQDQLHNALNLNRHDLTYIMLGKIHLLEGDLDKAIEVYKKAVEFSPENTELLTTLGLLYLQLGIYQKAFEHLGNALTYDPTNYKAILAAGSMMQTHGDFDVALTKYRVVACAVPESPPLWNNIGMCFFGKKKYVAAISCLKRANYLAPFDWKILYNLGLVHLTMQQYASAFHFLSAAINFQPKMGELYMLLAVALTNLEDIENAKRAYAEAVHLDKCNPLVNLCYAVLLYNQGEKKNALAQYQEMEKKVSLLKDNSSLEFDSEMVEMAQKLGAALQVGEALVWTKPVKDPKSKHQTTSTSKPASFQQPLGSNQALGQAMSSAAAYRTLPSGAGGTSQFTKPPSLPLEPEPAVESSPTETSEQIREK [N377C]
4,with no effect,MAEERVATRTQFPVSTESQKPRQKKAPEFPILEKQNWLIHLHYIRKDYEACKAVIKEQLQETQGLCEYAIYVQALIFRLEGNIQESLELFQTCAVLSPQSADNLKQVARSLFLLGKHKAAIEVYNEAAKLNQKDWEISHNLGVCYIYLKQFNKAQDQLHNALNLNRHDLTYIMLGKIHLLEGDLDKAIEVYKKAVEFSPENTELLTTLGLLYLQLGIYQKAFEHLGNALTYDPTNYKAILAAGSMMQTHGDFDVALTKYRVVACAVPESPPLWNNIGMCFFGKKKYVAAISCLKRANYLAPFDWKILYNLGLVHLTMQQYASAFHFLSAAINFQPKMGELYMLLAVALTNLEDIENAKRAYAEAVHLDKCNPLVNLAYAVLLYNQGEKKNALAQYQEMEKKVSLLKDNSSLEFDSEMVEMAQKLGAALQVGEALVWTKPVKDPKSKHQTTSTSKPASFQQPLGSNQALGQAMSSAAAYRTLPSGAGGTSQFTKPPSLPLEPEPAVESSPTETSEQIREK [N377A]
5,with no effect,MAEERVATRTQFPVSTESQKPRQKKAPEFPILEKQNWLIHLHYIRKDYEACKAVIKEQLQETQGLCEYAIYVQALIFRLEGNIQESLELFQTCAVLSPQSADNLKQVARSLFLLGKHKAAIEVYNEAAKLNQKDWEISHNLGVCYIYLKQFNKAQDQLHNALNLNRHDLTYIMLGKIHLLEGDLDKAIEVYKKAVEFSPENTELLTTLGLLYLQLGIYQKAFEHLGNALTYDPTNYKAILAAGSMMQTHGDFDVALTKYRVVACAVPESPPLWNNIGMCFFGKKKYVAAISCLKRANYLAPFDWKILYNLGLVHLTMQQYASAFHFLSAAINFQPKMGELYMLLAVALTNLEDIENAKRAYAEAVHLDKCNPLVNLEYAVLLYNQGEKKNALAQYQEMEKKVSLLKDNSSLEFDSEMVEMAQKLGAALQVGEALVWTKPVKDPKSKHQTTSTSKPASFQQPLGSNQALGQAMSSAAAYRTLPSGAGGTSQFTKPPSLPLEPEPAVESSPTETSEQIREK [N377E]
